Assay results from patent US20250320305A1 (Hoffmann-La Roche, published 2025).
Numbering of substitutions follows the chain as printed. In names and notes the source's numbering stands.

Assays:
[1] = target: T1, human CD40 expressed on cells (human, UniProt P25942 21-277); assay: cell-based or functional assay
[2] = target: T2, human Fibroblast Activation Protein (FAP) expressed on cells (human, UniProt Q12884 1-760); assay: flow cytometry, huFAP-transfected HEK cells
T2 construct: Cell-surface human FAP on transfected HEK or NIH/3T3 cells; also called huFAP; human FAP-transfected HEK cells
Procedure: The binding of anti-FAP antibodies with a human IgG1 P329G LALA Fc to human FAP was determined by flow cytometry using human FAP-transfected HEK cells. Briefly, the target cells were harvested with Cell Dissociation buffer, washed with FACS Buffer (PBS+2% FCS+5 mM EDTA+0.25% sodium acide) and seeded into 96-U bottom plates (1×10^5 cells/well). Unlabeled primary antibodies were added to the cells (final concentrations 10 μg/ml to 0.64 ng/ml; 1:5 dilutions) and incubated for 30 min at 4° C. After washing, cells were incubated with a PE-conjugated AffiPure F(ab)₂ Fragment Goat anti-human IgG, Fc□ specific (Jackson Immunoresearch) for 30 min at 4° C. in the dark. Afterwards, cells were washed, fixed and measured using a BD FACS LSR Fortessa™.

[3] = target: T3, biotinylated recombinant human FAP (human, UniProt Q12884 26-760, biotinylated); assay: SPR (Biacore)
T3 construct: also called biotinylated human FAP

[4] = target: T4, human CD40 extracellular domain with C-terminal His-AviTag (human, UniProt P25942 21-193); assay: SPR, antibody captured, CD40 ECD analyte;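 note: biacore SPR at 25 °C in PBS-T pH 7.4, CD40 ECD analyte from 300 nM in 1:3 series, 300 s association, up to 1200 s dissociation, double-referenced, Langmuir 1:1 fit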
T4 construct: not shown: C-terminal His-AviTag

[5] = target: T1, human CD40 expressed on cells; assay: flow cytometry, Raji cells;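 note: cell binding of antibodies to Raji cells detected by flow cytometry using an Alexa488-labelled anti-human IgG secondary antibody, primary incubation 1 h at 4 °C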
Procedure: CD40 positive cells (Raji cells) were detatched from the culture bottle using Trypsin and were counted using a Casy cell counter. After pelleting at 4° C., the cells were resuspended in FACS Buffer (2.5% FCS in PBS), adjusted to 2.0E+06 cells/mL, and dispensed to 96-well PP V-bottom-plates (25 μL/well=5.0E+04Zellen/well).
The CD40 specific antibodies were adjusted to 20 μg/mL in FACS buffer, resulting in a final concentration of 10 μg/mL. 20 μl were added to 25 μl cell suspension and incubated for 1 h at 4° C. The cells were then washed twice in FACS buffer. After washing, the cells were resuspended in 50 μL FACS-buffer containing secondary antibody (<huIgG>-Alexa488, c=10 μg/mL) and incubated 1 h bei 4° C. The cells were then washed twice in FACS buffer and resuspended in 70 μl/well FACS buffer for measurement using a FACS Canto (BD, Pharmingen).

[6] = target: T5, His-tagged human FAP ectodomain (human, UniProt Q12884 27-760); assay: SPR, His-tagged human FAP ectodomain as ligand
T5 construct: also called hu FAP ectodomain+poly-lys-tag+his6-tag; His-tagged FAP antigen

[7] = target: T1, human CD40 expressed on cells; assay: flow cytometry, primary human B cells
Procedure: Plates were centrifuged 5 minutes at 1700 rpm and supernatants were flicked off. […] All samples were resuspended in 50 μL/well of 4° C. cold FACS buffer containing the bispecific antigen binding molecules (primary antibody) or the isotype control antibody DP47 at the indicated range of concentrations (in duplicates) and incubated for 120 minutes at 4° C. Afterwards the cells were washed three times with 200 μL 4° C. cold FACS buffer. […] Data analysis was performed using the FlowJo version 10 software (FlowJo LLC).

B1: P1AF0873, CD40 (P1AE0817) x FAP (P1AE1689) (1+1) C-terminal crossfab fusion (bispecific antibody, human IgG1, kappa, L234A L235A)
light 1: QVQLVQSGAEVKKPGASVKVSCKASGYTLTDYNMDWVRQAPGQGLEWIGDIYPNTGGTIYNQKFKGRVTMTIDTSTSTVYMELSSLRSEDTAVYYCTRFRGIHYAMDYWGQGTTVTVSSASVAAPSVFIFPPSDEQLKSGTASVVCLLNNFYPREAKVQWKVDNALQSGNSQESVTEQDSKDSTYSLSSTLTLSKADYEKHKVYACEVTHQGLSSPVTKSFNRGEC
light 2: DIVMTQTPLSLSVTPGQPASISCRSSQSLVHSNGNTFLHWYLQKPGQSPQLLIYTVSNRFSGVPDRFSGSGSGTDFTLKISRVEAEDVGVYFCSQTTHVPWTFGGGTKVEIKRTVAAPSVFIFPPSDRKLKSGTASVVCLLNNFYPREAKVQWKVDNALQSGNSQESVTEQDSKDSTYSLSSTLTLSKADYEKHKVYACEVTHQGLSSPVTKSFNRGEC
heavy: not shown
chain: not shown
- EC50, two cell line bridging assay (SEAP of HEK-Blue CD40L reporter cells with FAP-expressing WM-266-4 cells) [1]: 26.5 pM

B2: P1AA9663, CD40 (huCD40) x FAP (28H1) (2+2) C-terminal crossfab fusion (bispecific antibody, human IgG1, kappa, L234A L235A)
light 1: EVQLLESGGGLVQPGGSLRLSCAASGFTFSSHAMSWVRQAPGKGLEWVSAIWASGEQYYADSVKGRFTISRDNSKNTLYLQMNSLRAEDTAVYYCAKGWLGNFDYWGQGTLVTVSSASVAAPSVFIFPPSDEQLKSGTASVVCLLNNFYPREAKVQWKVDNALQSGNSQESVTEQDSKDSTYSLSSTLTLSKADYEKHKVYACEVTHQGLSSPVTKSFNRGEC
light 2: DIQMTQSPSSLSASVGDRVTITCRSSQSLVHSNGNTFLHWYQQKPGKAPKLLIYTVSNRFSGVPSRFSGSGSGTDFTLTISSLQPEDFATYFCSQTTHVPWTFGQGTKVEIKRTVAAPSVFIFPPSDRKLKSGTASVVCLLNNFYPREAKVQWKVDNALQSGNSQESVTEQDSKDSTYSLSSTLTLSKADYEKHKVYACEVTHQGLSSPVTKSFNRGEC
heavy: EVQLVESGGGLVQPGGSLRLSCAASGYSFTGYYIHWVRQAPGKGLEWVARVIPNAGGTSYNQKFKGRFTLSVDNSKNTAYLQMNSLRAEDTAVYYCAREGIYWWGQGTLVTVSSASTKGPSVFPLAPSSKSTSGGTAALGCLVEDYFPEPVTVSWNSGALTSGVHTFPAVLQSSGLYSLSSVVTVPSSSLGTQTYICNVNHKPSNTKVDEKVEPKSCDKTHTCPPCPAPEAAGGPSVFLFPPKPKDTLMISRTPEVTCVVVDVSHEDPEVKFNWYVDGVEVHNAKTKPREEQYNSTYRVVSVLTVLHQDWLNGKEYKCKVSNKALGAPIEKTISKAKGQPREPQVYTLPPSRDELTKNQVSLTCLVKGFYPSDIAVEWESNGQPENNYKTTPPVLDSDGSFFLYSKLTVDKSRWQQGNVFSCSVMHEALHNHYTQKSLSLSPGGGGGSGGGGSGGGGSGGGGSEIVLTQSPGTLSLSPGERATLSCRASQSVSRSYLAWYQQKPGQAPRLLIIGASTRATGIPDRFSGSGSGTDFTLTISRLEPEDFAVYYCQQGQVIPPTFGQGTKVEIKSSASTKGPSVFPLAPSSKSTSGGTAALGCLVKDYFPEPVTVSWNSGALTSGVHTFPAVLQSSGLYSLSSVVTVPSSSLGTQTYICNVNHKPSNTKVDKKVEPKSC
- EC50, two cell line bridging assay (SEAP of HEK-Blue CD40L reporter cells with FAP-expressing WM-266-4 cells) [1]: 13.2 pM

B3: P1AE2302, CD40 (P1AE0817) x FAP (28H1) (2+1) C-terminal crossfab fusion (bispecific antibody, human IgG1, kappa, L234A L235A)
light 1: B2 light 1
light 2: B1 light 2
heavy 1: not shown
heavy 2: QVQLVQSGAEVKKPGASVKVSCKASGYSFTGYYIHWVRQAPGQSLEWMGRVIPNAGGTSYNQKFKGRVTLTVDKSISTAYMELSRLRSDDTAVYYCAREGIYWWGQGTTVTVSSASTKGPSVFPLAPSSKSTSGGTAALGCLVEDYFPEPVTVSWNSGALTSGVHTFPAVLQSSGLYSLSSVVTVPSSSLGTQTYICNVNHKPSNTKVDEKVEPKSCDKTHTCPPCPAPEAAGGPSVFLFPPKPKDTLMISRTPEVTCVVVDVSHEDPEVKFNWYVDGVEVHNAKTKPREEQYNSTYRVVSVLTVLHQDWLNGKEYKCKVSNKALGAPIEKTISKAKGQPREPQVCTLPPSRDELTKNQVSLSCAVKGFYPSDIAVEWESNGQPENNYKTTPPVLDSDGSFFLVSKLTVDKSRWQQGNVFSCSVMHEALHNHYTQKSLSLSPG
- EC50, two cell line bridging assay (SEAP of HEK-Blue CD40L reporter cells with FAP-expressing WM-266-4 cells) [1]: 2.5 pM

B4: anti-FAP antibody 4B9 (antibody, V domains shown)
VH: EVQLLESGGGLVQPGGSLRLSCAASGFTFSSYAMSWVRQAPGKGLEWVSAIIGSGASTYYADSVKGRFTISRDNSKNTLYLQMNSLRAEDTAVYYCAKGWFGGFNYWGQGTLVTVSS
VL: EIVLTQSPGTLSLSPGERATLSCRASQSVTSSYLAWYQQKPGQAPRLLINVGSRRATGIPDRFSGSGSGTDFTLTISRLEPEDFAVYYCQQGIMLPPTFGQGTKVEIK
- EC50 [2]: 0.089 µg/mL

B5: P1AE1690_Fab, humanized anti-FAP clone 212 variant VH1G2a/VL1G1a (Fab, V domains shown)
VH: QVQLVQSGAEVKKPGASVKVSCKASGYTLTDYNMDWVRQAPGKSLEWIGDIYPNTGGTIYNQKFKGRVTMTIDKSTSTVYMELSSLRSEDTAVYYCTRFRGIHYAMDYWGQGTTVTVSS
VL: EIVLTQSPATLSLSPGERATLSCRASESVDNYGLSFINWFQQKPGQAPRLLIYGTSNRGSGIPARFSGSGSGTDFTLTISSLEPEDFAVYFCQQSNEVPYTFGGGTKVEIK
notes: Fab
- Kd [3]: 114 pM
- T ½ [3]: 3.05 h
- koff [3]: 6.3e-05 s⁻¹
- kon [3]: 551000 M⁻¹ s⁻¹

B6: P1AE1689_Fab, humanized anti-FAP clone 212 variant VH1G1a/VL1G1a (Fab, V domains shown)
VH: B5 VH with K43Q, S44G, K74T
VL: B5 VL
notes: Fab
- Kd [3]: 95 pM
- T ½ [3]: 4.57 h
- koff [3]: 4.21e-05 s⁻¹
- kon [3]: 443000 M⁻¹ s⁻¹

B7: P1AE1693_Fab, humanized anti-FAP clone 212 variant VH1G2a/VL1G2a (Fab, V domains shown)
VH: B5 VH
VL: B5 VL with A47P
notes: Fab
- Kd [3]: 135 pM
- T ½ [3]: 2.68 h
- koff [3]: 7.18e-05 s⁻¹
- kon [3]: 530000 M⁻¹ s⁻¹

B8: P1AE1702_Fab, humanized anti-FAP clone 212 variant with VL2G2a (Fab, V domains shown)
VH: EVQLLESGGGLVQPGGSLRLSCAASGYTLTDYNMDWVRQAPGKGLEWVGDIYPNTGGTIYNQKFKGRFTISIDKSKNTAYLQMNSLRAEDTAVYYCTRFRGIHYAMDYWGQGTTVTVSS
VL: DIQMTQSPSSLSASVGDRVTITCRASESVDNYGLSFINWFQQKPGQPPKLLIYGTSNRGSGVPSRFSGSGSGTDFTLTISSLQPEDFAMYFCQQSNEVPYTFGGGTKVEIK
notes: Fab
- Kd [3]: 213 pM
- T ½ [3]: 1.8 h
- koff [3]: 0.000107 s⁻¹
- kon [3]: 502000 M⁻¹ s⁻¹

B9: P1AE1003, humanized anti-CD40 antibody VH1b/VL1b, huIgG1_LALA_PG (antibody, V domains shown)
VH: QVQLVQSGAEVKKPGASVKVSCKASGYSFTGYYIHWVRQAPGKSLEWMGRVIPNAGGTSYNQKFKGRVTLTVDKSISTAYMELSRLRSDDTAVYYCAREGIYWWGQGTTVTVSS
VL: DIVVTQTPLSLSVTPGQPASISCRSSQSLVHSNGNTFLHWYLQKPGQSPQLLIYTVSNRFSGVPDRFSGSGSGTDFTLKISRVEAEDVGVYFCSQTTHVPWTFGGGTKVEIK
notes: huIgG1 with effector silent Fc (P329G, L234A, L235A)
- Kd [4]: 2500 pM
- koff [4]: 0.00606 s⁻¹
- kon [4]: 2.46e+06 M⁻¹ s⁻¹
- EC50 [5]: 0.13 µg/mL

B10: P1AE1004, humanized anti-CD40 antibody VH1b/VL1c, huIgG1_LALA_PG (antibody, V domains shown)
VH: B9 VH
VL: B9 VL with I2V
notes: as for B9
- Kd [4]: 3000 pM
- koff [4]: 0.00795 s⁻¹
- kon [4]: 2.63e+06 M⁻¹ s⁻¹
- EC50 [5]: 0.14 µg/mL

B11: P1AE1005, humanized anti-CD40 antibody VH1b/VL1d, huIgG1_LALA_PG (antibody, V domains shown)
VH: B9 VH
VL: B9 VL with I2V, V109L
notes: as for B9
- Kd [4]: 3200 pM
- koff [4]: 0.00816 s⁻¹
- kon [4]: 2.58e+06 M⁻¹ s⁻¹
- EC50 [5]: 0.11 µg/mL

B12: P1AE1006, humanized anti-CD40 antibody VH1c/VL1b, huIgG1_LALA_PG (antibody, V domains shown)
VH: B9 VH with K43Q, Q106H
VL: B9 VL
notes: as for B9
- Kd [4]: 2600 pM
- koff [4]: 0.00651 s⁻¹
- kon [4]: 2.53e+06 M⁻¹ s⁻¹
- EC50 [5]: 0.14 µg/mL

B13: P1AE1007, humanized anti-CD40 antibody VH1d/VL1b, huIgG1_LALA_PG (antibody, V domains shown)
VH: B9 VH with K43Q, T71S
VL: B9 VL
notes: as for B9
- Kd [4]: 2700 pM
- koff [4]: 0.00662 s⁻¹
- kon [4]: 2.5e+06 M⁻¹ s⁻¹
- EC50 [5]: 0.12 µg/mL

B14: P1AE2734, CD40 (P1AE0817) x FAP (P1AE1689) (2+1) with different C-terminal crossfab fusion (bispecific antibody, human IgG1, kappa, L234A L235A)
light 1: EIVLTQSPATLSLSPGERATLSCRASESVDNYGLSFINWFQQKPGQAPRLLIYGTSNRGSGIPARFSGSGSGTDFTLTISSLEPEDFAVYFCQQSNEVPYTFGGGTKVEIKSSASTKGPSVFPLAPSSKSTSGGTAALGCLVKDYFPEPVTVSWNSGALTSGVHTFPAVLQSSGLYSLSSVVTVPSSSLGTQTYICNVNHKPSNTKVDKKVEPKSC
light 2: B1 light 2 with R128E, K129Q
heavy 1: not shown
heavy 2: B3 heavy 2 with E144K, E210K
notes: bivalent for CD40, monovalent for FAP; also called VH-Ckappa fused to Fc
- Kd [6]: 210 pM
- koff [6]: 5.2e-05 s⁻¹
- kon [6]: 250000 M⁻¹ s⁻¹

B15: P1AE2487, CD40 (P1AE0817) x FAP (4B9) (2+1) C-terminal crossfab fusion (bispecific antibody, human IgG1, kappa, L234A L235A)
light 1: EIVLTQSPGTLSLSPGERATLSCRASQSVTSSYLAWYQQKPGQAPRLLINVGSRRATGIPDRFSGSGSGTDFTLTISRLEPEDFAVYYCQQGIMLPPTFGQGTKVEIKSSASTKGPSVFPLAPSSKSTSGGTAALGCLVKDYFPEPVTVSWNSGALTSGVHTFPAVLQSSGLYSLSSVVTVPSSSLGTQTYICNVNHKPSNTKVDKKVEPKSC
light 2: B1 light 2 with R128E, K129Q
heavy 1: not shown
heavy 2: B3 heavy 2 with E144K, E210K
notes: bivalent for CD40, monovalent for FAP; also called CD40 x FAP (4B9) 2+1 crossfab
- EC50 [7]: 86 pM
